From the nanobody polyreactivity screen of Harvey et al. (2022)

Assay: yeast display, Sf9 membrane polyspecificity reagent, FACS + sequencing; frameworks hold sequencing errors
In short: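 After 36–48 hours of galactose induction, yeast (Saccharomyces cerevisiae BJ5465) displaying a synthetic nanobody library were stained at 4 °C for 1 hour with 10% biotinylated, detergent-solubilized Sf9 membrane reagent. Streptavidin microbeads enriched the stained cells before FACS sorting into low and high (top ~1%) gates on anti-HA and streptavidin fluorescence. Each clone's polyreactivity label reflects its gate of origin.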

Sequence | polyreactivity (PSR sort gate)
QVQLVESGGGLVQAGGSLRLSCAASGRISLHNTIGWYRQAPGKERELVAAINYSGGSTYYADTVKGRFTISRDNAKNTVYLQMNSLKPEDTEVYYCAADFYQSHFYRPRYDYWGQGTQVTVSS | low polyreactivity
QVQLVESGGGLVQAGGSLRLSCAASGFTFVWNARGWYRQAPGKERELVAVISYSGGSTYYADSVKGRFTISRDNAKNTVYLQMNSLKPEETAVDYCAAEFVTYYSSSKRAYYYWGQGTLVTVSS | high polyreactivity
QVQLVESGGGLVQAGGSLRLSCAASGSIFYPYAMGWYRQAPGKERELVADINSDGSTTYADSVKGRFTISRDNAKNTVYLQMNSLKPEDTAVYYCAVDVSVNWPLLERYEYWGQGTQVTVSS | low polyreactivity
QVQLVESGGGLVQAGGSLRLSCAASGRIFYYYVMGWYRQAPGKERELVAVIDWSGGSTYYADSVKGRFTISRDNAKNTVYLQMNSLKPEDTGVYYCAKVWLKFSLAYEDYDYLGQGTQVTVSS | low polyreactivity
QVQLVESGGGLVQAGGSLRLSCAASGSIFLLYAMGWYRQAPGKERELVAAIRWSGARTYYADSVKGRFTISRDKAKNTVYLQMNSLKPDDTAVYYCAADYVVDDIYWWEGDYWGQGTQVTVSS | high polyreactivity
QVQLVESGGGLVQAGGSLRLSCAASGLIFDSYVMGWYRQAPGKERELVAVISGSGGSTYYADSVKGRFTISRDNAKNTVYLQMNSLKPEDTAVYYCAAQYSAGQYYGYGYWGQGTQVTVSS | high polyreactivity
QVQLVESGGGLVQAGGSLRLSCAASGSTFDVNALGWYSQAPGKDRELVAAISWNSGSTYYADSVKGRFTISRDNAKNTVYLQMNSLKPEDTAVYYCAATYGTGRRSKYGYWGQGTQVTVSS | high polyreactivity
QVQLVESGGGLVQAGGSLRLSCDASGRIFGYTMGWYIQAPGKERELVAAISKSGGSTYYADSVKGRFTISRDNAKNTVYLQMNSLKPEDTAVYYCNKPQRILYDYWGQGTQVTVSS | high polyreactivity
QVQLVESGGGLVQAGGSLRLSCAASGRTFHAYAMGWYRQAPGKGRELVAAITRTGTTHYADSVKGRFTISRDNAKNTVYLQMNSLKPEDTAVYYCAAQHVRVDAQFVLQGYDYWGQGTQVTVSS | low polyreactivity
QVQLVESGGGLVQAGGSLRLTSAASGSTIDYYAMGWYRQAPGKERELVARISKRGGSTYYADSVKGRFTISRDNAKYTVYLQMNSLKPEDTAVYFCAKRVRISYTNYHFDYWGQCTQVTVSS | high polyreactivity
QVQLVESCGGLVQAGGSLRLSCAASGYIFVYNAMGWYRQAHGKERELVAAISTTGGRTYYADSVKGRFTISRDNAKNTVYLQMNSLKPEDTAVYYCAARAYYARSLFGYWGQGTQVNVSS | high polyreactivity
QVQLVESGGGLVQAGGSLRLSCAASGIIFSWYAMGWYRQAPGKEREFVAAISKSGGRTYYADSVKGRFTISRDNAKNTVYLQMNSLKPEDTAVYYFATGISRDYIYIILRYDYWGQGTQVTVSS | low polyreactivity
QVQLVESGGGLVQAGGSLRLSCAASGSTFYYYAMGWYRQAPGKERELVAAIDRDDRTNYADSVKGRFTISRDNAKNTVYLQMNSLKPEDTAVYYCAAVEIYEYDYWGQGTQVTVSS | low polyreactivity
QVQLVESGGGLVQAGGSLRLSCAASGSIFRKYTMGWYRQAPGKERELVAAINTNGGSTYYADSVKGRFTISRDNAKNTVYLQMNSLKPEDTAVYYCRAWAQNQYNYWGQGTQVTVSS | high polyreactivity
QVQLVESGGGLVQAGGSLRLSCAASASNSNGMTWYGIDRRLGRKELVAGIRSAGSTNYADSVKGRFTISRDNAKNTFYLQMNSLKPEDTAGYYCAKDYRWVWRKYGYWGQGTQVTVSS | low polyreactivity
QVQLVESGAGLVQAGGSLSLSCAASGSIFGYYTMGWYRQAPGKERELVAAISRSGTSTFYADSVKGRFTISRDNAKNTVYLQMNSLKQEDTAVYYCNAVGSGYRSWYDYWGQGTKVTVSS | high polyreactivity
QVQLVESGGGLVQAGGSLRLSCAASGRTSTRNAMGWYRQAPGKERELVAAITRSGGGTYYADSVKGRFTISRDNAKNTVYLQMNSLKPEDTAVYYCAADQRSPSDGYEYWGQGTQVTVSS | low polyreactivity
QVQLVESGGGLVQAGGSLRLSCAASGFIFVRYAMGWYRQAPGKERELVASISGRGSSTYYADSVKGRFTISRDNAKNTVYLQMNSLKPEDTAVYYCAADYYRRIGGYPYDYDYWGQGTQVTVSS | high polyreactivity
QVQLVESGGGLVQAGGSLRLSCAASGFTFVPYAMGWYRQAPGKERETNADSVKGRFTISRDNAKNTVYLQMNSLKPEDTAVYYCAAGGYGPYDYWGQGTQVTVSS | low polyreactivity
QVQLVESVGGLVQAGGSLRLSCAASGFTFASNAMGWYRQAPGKERELVAAISRSGGSTFYADSVKGRFTISRDNAKNTVYLQMNSLKPEDTAVYYCAADIWRVYSTFYYWGQGTQVTVSS | low polyreactivity
QVQLVESGGGLVQAGGSLRLSCAASGSNFTFYTMGWYRQEPGKERELVAAINWSGSRTYYADSVKGRFTISRDNAKNTVYLQMNSLKPEDTAVYYCDAYYYTGPTTVESDYWGQGTQVTVSS | high polyreactivity
QVQLVESGGGLVQAGGSLRLSCAASGSIFQFYAMGWYRQAPGKERELVAVITTSGVSTYYADSVKGRFTISRDNAMNTVYLQMNSLKPEDTAVYFCAADDYYLAGDYWGQGTQVTVSS | low polyreactivity

Sequence | polyreactivity (PSR sort gate)
QVQLVESGGGLVQAGGSLRLSCAASGRIFGYNAMGWSRQAPGKERELVAAISYSGGSTYYADSVKGRFTISRDNAKNTVYLQMNSLKPEDTAVYYCAARHPYYYHYDYWGQGTQVTVSS | high polyreactivity
QVQLVESGGGLVQAGGSLRLSCAASGFTIWYTMGSYRQAPGKEREFLAAITSGGGSTYYAESVKGRFTISRDNAKNTVYFQMNSLKPEDTAVYYCAARERSYRAYGYWRQGTQVTVSS | high polyreactivity
QVQLVESGGGLVQAGGSLRLSCAASGFTFYPYAMGWYRQAPGKESEFVAAITWRGASTYYADSVKGRFTISRDNAKNTVYLQMNSLKPEDTAVYYCNARWRVPRYRYDYWGQGTQVTVSS | high polyreactivity
QVQLVESGGGLVQAGGSLRLSCAASGRTFYWNAMGWYRQAPGKERELVASINGGGSTYYADSVKGRFTISRDNAKNTVYLQMNSLKPEDTAVYYCNVRYYFPRYQQRYQLNEYYYWGQGTQVTVSS | low polyreactivity
QVQLVESGGGLVQAGGSLRLSCAASGSTFGYNAMGWYRQAPGKERELVAGIRSSGGSTYYADSVKGRFTISRDNAKNTVYLQMNSLKTEDTAVSYCNTRRRRNEKMYYWGQGTQVTVSS | high polyreactivity
QVQLVESGGGKVQAGGSLRLSCAPSGSIFFSYAMGWYRQAPGKERELVAAISGSGTSTYYADSVKGRFTISRDNAKNTVYLQMNSLKPEDTAVYYCPTDGGAAWGRYYWDYGYWGQGTQVTVSS | low polyreactivity
QLQLEESGGGLVQAGGSLRLSCAASGFIFYSNAMGWYRKAPGKERELVASIPGDGGTTYYADSVKGRFTISRDNAKNTVYLQMNSLKPEDTAFYYCAKDYIYRGYYTDFRYEDYEYWGQGTQVTVSS | low polyreactivity
QVQLVESGGGLVQAGGSLRLSSAASGSTFTFYAMGWYRQAPGKERELVATISWSTGTTYYADSVKGRFTISRDNAKNTVYLQMNSLKPEVTAVYYCAAPWSYRYDYWGQGTQVTVSS | low polyreactivity
QVQLVESGGGLVQAGGSLRLSCAASGSTFVFNAMGWYRQAPGKERELVARITTGGSTHYADSVKGRFTISRDNAKNTVYLQMNSLKPEDTAVYYCNTGPYTFDSPEYYYWGQGTQVTVSS | low polyreactivity
QVQLVESGGGLVQAGGSLRLSCAASGRTINRYDMGWYRQAPGKERELVAAISTSGGTTYYADSVKGRFTISRDNAKNTVYLQMNSLKPEDTAVYYCNARALAYWGQGTKVTVSS | high polyreactivity
QVQLVESGGGLVQAGGSLRLSCAASGSTFYYYARGWYRQAPGKERELVATITSGASTNYADSVKGRFTISRDNAKNTVYLQMNSLKPEDTAVYYCNAVSLTSYLPWSSYDYWGQGTQVTVSS | low polyreactivity
QVQLVESGGGLVQAGGSLRLSCAASGSIFGPYAMGWYRQAPGKERELVATITSGGRTYYADSVKGRFTISRDNAKNTVYFQLNSLKPEDTAVYYCAAAGKGRYHVRSTMDYWGQGTQVTVSS | high polyreactivity
QVQLEESGGGLVQAGGSLRLTCAATGRIYFYGMGRYRQAPGNERELVATITSVSNTYYADSVKGRFTKSRDNAKNTVYLVMNSLKPEETAVYYCAAVTRGNWVYYWGQRTQVTVSS | high polyreactivity
QVQLVESGGGLVQAGGSLRLSCAASGSTIVLNDKRCYRQAPGKERELVAAITWSGGSTYYADSVKGRFTISRDNAKNTVYLQMNSLKPEDTAVYYCNVDYYGWPYWYEYDYWGQGTQVTVSS | high polyreactivity
QVQLVESGGGLVQAGGSLRLSCAASGRTYGYAMGWYRQAPGKERELVARITWRGGSTSYADSVKGRFTISRDNAKNTVYLQMNSLKPEDTAVYYCAAGFYFPVYTYVRKRYYYWGQGTQVTVSS | high polyreactivity
QVQLVESGGGLVQAGGSLRLSCAASGSIFRYYDMGWYRQAPGKERELVAAISDSTGTTYYADSVKGRFSISRDNAKNTVYLQMNSLKPEDTSVDYCTAGYDPRYDYWGQGTQVTVSS | high polyreactivity
QVQLVESGGGVVQAGGSLRLSCAATGRTFWRYAMGGYIQAPGKERELVASISVSGGTTYYAYSVKGRFTISRDHAKNTVYLQMNSLKPEDTAVYYCAARYGSIYSILYYRFVYWGQGTQVTVSS | high polyreactivity
QVQLVESGGGLVQAGCRLRLSCAASGRTFFPYAMGWYRQAPGKERELVAAITTGDITNYADSVKGRFTISRDNAKNTVYLQMNSLKPEDTAVYYCAARGYASWSYGGYPLKLDYWGQGTQVTVSS | low polyreactivity
QVQLVESGGGLVQAGGSLRLSCAASGFTFYRNAMGWSRQAPGKERELVAAISRGGRTYYADSVKGRFTISRDNAKNTVYLQMNSLKPEDTAVYYCAVGYSGYGSSMDYWGQGTQVTVSS | high polyreactivity
QVQLVESGGGLVQAGGSLRLSCAASGSILYVYAMGWYRQAPGKERELVAVITSGGSTNYADSVKGRFTISRDNAKNTVYLQMNSLKPEDTAVYYCRFKYAVAHHFWVYRYDYWGQGTQVTVSS | low polyreactivity
QVQLVETGGGLVQAGGSLRLSCAASGSIFDWYAMGWYRQAPGKEGELVAAISSGDSTYYADSVKGRFTISRDNAKNTVYLKMNSLKPEDTAVYYCAAVTKLSGIRYNYWGQGTQVTVSS | low polyreactivity
